Assay results from patent publication US20260008817A1, “CYCLIC PEPTIDE OR SALT THEREOF, AND USES THEREOF” (FUJIFILM Corporation, priority 2023, published 2026).
Positions of bridges follow the written chain, without caps; N, C: chain ends. No end group written: not given here. COCH2 = acetyl group that carries the bridge

How the values were obtained:
[1] = target: T1, FGFR3 Protein, Human, Recombinant (ECD, His Tag) (Sino Biological, 16044-H08H) (human, UniProt P22607 23-375); assay: SPR grade, FGFR 1 umol/L over immobilized peptide
T1 construct: extracellular domain; bought; flowed at 1 umol/L over immobilized peptide
T1 sequence (looked up): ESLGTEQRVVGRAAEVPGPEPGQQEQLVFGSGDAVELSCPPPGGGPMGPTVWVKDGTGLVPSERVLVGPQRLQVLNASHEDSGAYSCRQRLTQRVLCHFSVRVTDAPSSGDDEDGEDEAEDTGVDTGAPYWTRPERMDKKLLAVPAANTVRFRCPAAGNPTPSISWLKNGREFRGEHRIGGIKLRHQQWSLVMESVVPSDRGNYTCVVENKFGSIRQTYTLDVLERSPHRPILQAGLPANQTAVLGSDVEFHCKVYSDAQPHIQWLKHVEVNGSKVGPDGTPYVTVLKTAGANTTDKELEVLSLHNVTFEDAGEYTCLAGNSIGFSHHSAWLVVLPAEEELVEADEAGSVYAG
Protocol: (§1) A CM5 sensor chip (Cytiva, 29149603) was set in Biacore-T200 (manufactured by Cytiva) which is a surface plasmon resonance device, and an HBS-EP buffer (Cytiva, BR100826) was added as a running buffer at a flow rate of 10 μL/min to equilibrate the flow channel. Next, 70 μL of a mixed aqueous solution of 0.2 mol/L 1-(3-dimethylaminopropyl)-3-ethylcarbodiimide (EDC) and 0.05 mol/L N-hydroxysuccinimide (NHS) was added to activate the sensor chip. Then, a cyclic peptide prepared to 2 mg/mL in HBS-EP buffer was added thereto to perform immobilization at about 200 RU. Thereafter, the blocking treatment was performed with an ethanolamine solution. In addition, in another flow channel of the same sensor chip, blocking treatment was performed immediately after activation without […].
(§2) After various FGFRs (FGFR1 Protein, Human, Recombinant (His Tag) (Sino Biological, 10616-H08H), FGFR3 Protein, Human, Recombinant (ECD, His Tag) (Sino Biological, 16044-H08H), FGFR4 Protein, Human, Recombinant (His Tag) (Sino Biological, 10538-H08H)) diluted with HBS-EP to 1 μmol/L at 25° C. was added to each flow channel of the cyclic peptide-immobilized sensor chip prepared above, for 10 minutes, HBS-EP was allowed to flow as a running buffer for 30 minutes, and the binding of various FGFRs to the cyclic peptide was measured. […] The binding amount of the cyclic peptide was evaluated from the difference between the measured value of Biacore-T200 in the flow channel in which the cyclic peptide was immobilized and the measured value of Biacore-T200 in the flow channel in which the cyclic peptide was not immobilized, in a case where 1 μmol/L FGFR was allowed to flow.
(§3) The binding amount of FGFR evaluated above was normalized to the binding amount of FGFR molecules per one molecule of the cyclic peptide using the molecular weights of the cyclic peptide and FGFR, and the binding affinity to FGFR was evaluated according to the following evaluation criteria.

[2] = target: T2, FGFR4 Protein, Human, Recombinant (His Tag) (Sino Biological, 10538-H08H) (human, UniProt P22455 22-369); assay: SPR grade, FGFR 1 umol/L over immobilized peptide
T2 construct: bought; flowed at 1 umol/L over immobilized peptide
T2 sequence (looked up): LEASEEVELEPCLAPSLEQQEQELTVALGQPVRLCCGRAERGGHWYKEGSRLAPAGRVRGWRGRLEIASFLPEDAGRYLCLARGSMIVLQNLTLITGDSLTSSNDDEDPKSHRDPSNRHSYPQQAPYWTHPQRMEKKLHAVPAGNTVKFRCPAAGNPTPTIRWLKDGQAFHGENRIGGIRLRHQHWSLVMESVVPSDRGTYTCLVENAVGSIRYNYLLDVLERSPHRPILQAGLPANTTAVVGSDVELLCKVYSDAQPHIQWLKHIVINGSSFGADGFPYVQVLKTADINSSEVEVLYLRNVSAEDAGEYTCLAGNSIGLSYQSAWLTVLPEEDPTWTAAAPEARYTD
Protocol: as §1, §2, §3

[3] = target: T3, FGFR1 Protein, Human, Recombinant (His Tag) (Sino Biological, 10616-H08H) (human, UniProt P11362-7 22-374); assay: SPR grade, FGFR 1 umol/L over immobilized peptide
T3 construct: bought; flowed at 1 umol/L over immobilized peptide
T3 sequence (looked up): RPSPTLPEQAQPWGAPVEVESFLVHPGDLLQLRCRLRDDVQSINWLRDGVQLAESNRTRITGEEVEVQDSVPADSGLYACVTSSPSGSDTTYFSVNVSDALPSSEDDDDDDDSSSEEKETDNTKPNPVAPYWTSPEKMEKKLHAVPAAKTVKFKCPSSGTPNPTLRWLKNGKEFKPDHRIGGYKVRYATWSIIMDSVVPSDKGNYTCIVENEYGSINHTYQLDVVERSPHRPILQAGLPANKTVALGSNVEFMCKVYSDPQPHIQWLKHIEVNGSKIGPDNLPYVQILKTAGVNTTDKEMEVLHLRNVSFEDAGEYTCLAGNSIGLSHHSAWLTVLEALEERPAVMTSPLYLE
Protocol: as §1, §2, §3

[4] = target: Recombinant Human FGFR1 alpha (IIIc) Fc Chimera Protein, CF (R&D systems, 658-FR-050) (human) (UniProt P11362); assay: SPR grade, peptide 10 nmol/L over FGFR1-Fc; details: scale: moleculesofcyclicpeptide/onemoleculeoffgfr

Q: With ACVWTFDRHAQEISQALHK(COCH2)VKKK (thioether 2-19, chemically synthesized) [cyclic peptide SEQ ID NO: 335] as the binder, how does the “binding amount (SPR, molecules of FGFR per one molecule of cyclic peptide, at 1 umol/L FGFR)” value [1] read?
A: Its value is 0.01 to 0.05 moleculesoffgfr/onemoleculeofthecyclicpeptide.

Q: And the “binding amount (SPR, molecules of FGFR per one molecule of cyclic peptide, at 1 umol/L FGFR)” value [2]?
A: Its value is ≥ 0.05 moleculesoffgfr/onemoleculeofthecyclicpeptide.

Q: And the “binding amount (SPR, molecules of FGFR per one molecule of cyclic peptide, at 1 umol/L FGFR)” value [3]?
A: Its value is ≥ 0.05 moleculesoffgfr/onemoleculeofthecyclicpeptide.

Q: What about the binding amount (SPR, molecules of cyclic peptide bound per one molecule of FGFR at 10 nmol/L peptide) [4] of the same binder?
A: The binding amount (SPR, molecules of cyclic peptide bound per one molecule of FGFR at 10 nmol/L peptide) was over 0.7.
